Assay results as given in the supplement of paper PMC10567573.

B1: DCAF4 (parent)
chain: TTKCVRQYEGHVNEYAYLPLHVHE

Variants of: B1
Assay: protein stability index of a GFP-peptide fusion (GPS, HEK-293T) (PSI 1-6); higher = more stable
Conditions: c terminus: a fixed tail appended
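Also: lentivirally expressed fusions sorted by FACS into six bins by GFP to DsRed ratio, PSI derived from sequencing read proportions per bin multiplied by bin number.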

Protein stability index: each site, then its substitutions
G10: T 2.57; I 1.43; Q 2.24; W 1.65; Y 2.29; S 2.69; K 3.44; M 2.06; N 2.11; R 2.3; L 2.11; P 2.18; V 2.14
N13: Q 2.32; R 2.31; S 2.78; W 1.87; L 2.85; I 1.66; H 2.5; D 2.35; M 1.88; G 3.04; C 2.35; P 3.12; Y 2.09; T 2.64; E 3.55; V 2.23; A 2.64; F 2.02; K 2.48
Y15: E 3.6; D 3.36; K 2.85; C 3.56; T 2.59; G 3.84; L 2.97; Q 3.32; I 3.09; H 3.02; W 2.12; P 3.51; M 2.96; V 3; R 3.43; N 2.88; A 3.57; F 3.08; S 3.28
V12: K 3.33; R 2.6; P 2.69; A 3.03; D 3.19; L 2.76; I 2.52; T 2.85; S 2.78; N 2.98; W 2.07; C 2.48; M 2.86; E 3.35; H 2.71; Y 2.52; F 2.11; G 3.13; Q 2.58
A16: F 2.32; S 2.45; H 3.05; D 2.54; K 2.71; R 2.6; V 2.2; M 2.34; C 2.44; W 1.84; P 3.02; I 2.2; Y 1.87; E 3.31; T 2.82; Q 3.01; N 2.6; G 2.13; L 2.33
H11: T 3.25; M 2.26; R 2.44; L 1.95; F 1.88; A 2.7; P 3.25; E 3.17; Q 2.53; V 3.56; K 2.66; Y 2.84; N 2.96; S 2.6; C 2.1; W 1.81; D 2.88; I 2.75; G 2.38
P19: C 1.84; D 3.02; A 1.89
L18: D 3.8; V 2.48; R 2.89; G 3.09; E 3.58; I 2.26; Y 2.38; Q 3.16; C 2.74; H 3.09; N 3.15; A 2.92; S 2.98; W 2.28; M 2.82; F 2.51; T 2.79; P 2.75; K 2.76
E14: A 1.85; Q 2.35; M 1.43; N 2.47; V 1.44; G 2.29; F 3.16; W 1.14; L 1.63; S 2.05; T 2.23; C 2.03; P 2.57; K 2.64; D 2.79; H 2.05; Y 1.64; R 2.34
Y17: G 3.37; R 3.06; N 3.08; D 4.01; E 4.23; F 2.55; K 2.96; Q 3.27; L 3.79; C 3.51; T 3.65; V 2.81; W 2.69; P 3.82; M 3.06; I 2.86; S 3.24; A 4.37; H 2.94
